Ends that are not written are not given here.
What was measured:
[1] = target: T1, Glypican-3 on human HCC cells (Hep3B, HepG2) and in HCC tissue (human, UniProt P51654 25-554); experiment: cell-based or functional assay
[2] = target: T1, Glypican-3 on human HCC cells (Hep3B, …); experiment: confocal microscopy of xenograft and normal mouse liver sections, n=26
Method: FIGS. 13A-I show validation of specific peptide binding to GPC3 overexpressed in mouse HCC xenograft tumors. Confocal microscopy of A) ALL*-Cy5.5 compared to B) QLE*-Cy5.5 to sections of Hep3B xenograft tumors. Fluorescence intensities were measured from sets of 3 (dashed white) boxes with dimensions of 20×20 μm2.
The specimens were also sectioned for collection of confocal images to perform microscopic validation of peptide binding ex vivo. We found increased cell surface staining of ALL*-Cy5.5 compared with QLE*-Cy5.5 to Hep3B xenograft (arrow), FIG. 13A,B. Overexpression of GPC3 on cell surface of Hep3B xenograft was confirmed with known antibody, FIG. 13C.

[3] = target: T1, Glypican-3 on human HCC cells (Hep3B, …); experiment: confocal microscopy on Hep3B cells with siRNA knockdown of GPC3
Description: (§1) On confocal microscopy, we observed strong fluorescence intensity from ALL*-Cy5.5 binding to the surface (arrow) of A) Hep3B and B) HepG2 human HCC cells, and minimal signal with C) SK-Hep1 cells. D-F) Minimal signal is observed with the scrambled control peptide QLE*-Cy5.5 for all cells. Strong binding (arrow) is also observed with AF488-labeled anti-GPC3 antibody used as a positive control for G) Hep3B and H) HepG2 and minimal signal with I) SK-Hep1. […] The Hep3B versus SK-Hep1 difference was also larger for antibody than QLE (P=2.3×10⁻⁸, 6.0-fold larger). Intensity was measured with 6 replicates per condition and fitted to an ANOVA model with terms for 9 means to log-transformed data. […] We further validated specific peptide binding to GPC3 using siRNA knockdown. […] Q) Quantified fluorescence intensities. The siCL vs siGPC3 difference was 7.4 times bigger for ALL than the same difference for QLE (P=7.8×10⁻⁵), and the difference for antibody was 8.9 times bigger than for QLE (P=2.5×10⁻⁵), by ANOVA on log-transformed data. Results are an average of 6 images collected independently.
The specificity of lead candidate peptide reagent binding was validated by siRNA knockdown of GPC3 in human HCC cells. The cells were transfected with siRNA to knockdown cell surface expression of GPC3. […] These cells were transfected with non-targeting siRNA (siCL) for use as control.

[4] = target: T1, Glypican-3 on human HCC cells (Hep3B, …); experiment: affinity restated in the discussion of the studies (flow cytometry on Hep3B cells)
Method: (§2) The apparent dissociation constant (kd) was measured for the optimized GPC3 peptide to Hep3B cells to provide an assessment of peptide binding affinity. The ALL*-Cy5.5 peptide reagent was serially diluted in PBS at concentrations ranging from 0 to 200 nM in 25 nM increments and incubated with Hep3B cells. The mean fluorescence intensities was measured on flow cytometry. The equilibrium dissociation constant kd=1/kₐ was calculated by performing a least squares fit of the data to the non-linear equation I=(I₀+Iₘₐₓkₐ[X])/([…]). I₀and Iₘₐₓ are the initial and maximum fluorescence intensities, corresponding to no peptide and at saturation, respectively, and [X] represents the concentration of the bound peptide.

[5] = target: T1, Glypican-3 on human HCC cells (Hep3B, …); experiment: confocal microscopy, Hep3B siGPC3 vs siCL
Description: The specificity of lead candidate peptide reagent binding was validated by siRNA knockdown of GPC3 in human HCC cells. The cells were transfected with siRNA to knockdown cell surface expression of GPC3. […] These cells were transfected with non-targeting siRNA (siCL) for use as control. […] FIG. 6-1D,E show ˜4-fold reduction in fluorescence intensity with both the peptide reagent and anti-GPC3 antibody, respectively, for Hep3B cells transfected with siRNA (siGPC3) to knock down GPC3 expression. […] FIG. 6-2M, N, O and P show the same result as original FIG. 6-1A, B, D and E.

[6] = target: T1, Glypican-3 on human HCC cells (Hep3B, …); experiment: flow cytometry, mean fluorescence of Hep3B cells with 0-200 nM peptide; apparent dissociation constant
Method: as §2

[7] = target: T1, Glypican-3 on human HCC cells (Hep3B, …); experiment: confocal microscopy on cells, ANOVA on log-transformed data
Description: as §1, with “FIGS. 6-2A-Q show validation of specific peptide binding to cells in vitro. On” for “On”

[8] = target: T1, Glypican-3 on human HCC cells (Hep3B, …); experiment: immunofluorescence on human biopsies, ANOVA on log-transformed data

T1 sequence (P51654 25-554 limits assumed): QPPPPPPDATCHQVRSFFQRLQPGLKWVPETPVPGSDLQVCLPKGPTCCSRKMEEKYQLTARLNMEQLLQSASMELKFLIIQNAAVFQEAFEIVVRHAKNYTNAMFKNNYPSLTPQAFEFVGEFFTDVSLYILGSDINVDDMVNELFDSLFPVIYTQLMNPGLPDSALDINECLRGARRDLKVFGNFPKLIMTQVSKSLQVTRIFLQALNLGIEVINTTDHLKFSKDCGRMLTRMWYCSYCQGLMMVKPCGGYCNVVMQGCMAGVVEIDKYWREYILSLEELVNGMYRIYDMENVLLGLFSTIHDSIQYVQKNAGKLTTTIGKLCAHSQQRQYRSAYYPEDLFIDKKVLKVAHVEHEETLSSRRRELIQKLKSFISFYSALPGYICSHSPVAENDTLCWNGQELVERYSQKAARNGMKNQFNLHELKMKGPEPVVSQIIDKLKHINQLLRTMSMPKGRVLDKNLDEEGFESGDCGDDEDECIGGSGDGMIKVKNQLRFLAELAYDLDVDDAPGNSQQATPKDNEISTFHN

QLELTFHANLEAGGGSK(sulfo‑Cy5.5) [QLE*-Cy5.5 scrambled control peptide (QLELTFHANLEA-GGGSK-Cy5.5)]
target-to-background (T/B) ratio at 2 hours, in vivo whole-body NIR fluorescence imaging of Hep3B xenograft [1]: 1.12
target-to-background ratio, in vivo NIR laparoscopy of Hep3B xenograft 2 hours after injection [1]: 3

ALLANHEELFQT [unlabeled ALL* peptide (ALLANHEELFQT)]
reduction of T/B ratio of ALL*-Cy5.5 by blocking with 3-fold unlabeled targeting peptide dose [1]: 1.65 fold
reduction of T/B ratio of ALL*-Cy5.5 by blocking with 10-fold unlabeled targeting peptide dose [1]: 3.56 fold

B1: ALL*-Cy5.5 peptide reagent (ALLANHEELFQT-GGGSK-Cy5.5) (peptide)
peptide: ALLANHEELFQTGGGSK(sulfo‑Cy5.5)
notes: also called lead candidate GPC3 peptide; optimized GPC3 peptide
fold, intensity from peptide binding to HCC (Hep3B xenograft) against normal liver [2]: 2.22 fold
fold, siCL vs siGPC3 difference against the same difference for QLE [3]: 7.4 fold
Kd [4]: 0.0713 µM
fold reduction in fluorescence intensity on GPC3 knockdown [5]: ~4 fold
fluorescent intensity of ALL*-Cy5.5 against control peptide QLE*-Cy5.5, in vivo dual axes confocal endomicroscopy [1]: 2.9 fold
target-to-background (T/B) ratio at 2 hours, in vivo whole-body NIR fluorescence imaging of Hep3B xenograft [1]: 3.91
target-to-background ratio of ALL*-Cy5.5 against QLE*-Cy5.5, in vivo NIR laparoscopy [1]: 2.8 fold
target-to-background ratio, in vivo NIR laparoscopy of Hep3B xenograft 2 hours after injection [1]: 8.3
Kd [6]: 0.071 µM
fold, intensity difference Hep3B vs SK-Hep1 against the same difference for QLE* [7]: 8.2 fold
fold, intensity difference HepG2 vs SK-Hep1 against the same difference for QLE* [7]: 3.3 fold
fold, signal in human HCC against adenoma [8]: 2.48 fold
fold, signal in human HCC against cirrhosis [8]: 2.05 fold
fold, signal in human HCC against normal liver [8]: 3.43 fold
